Test [1] deals with T1, recombinant HMG1 produced in E. coli as a calmodulin binding protein (CBP) fusion (human). The test can be described thus: cell-based or functional assay.
Test [2] concerns the target T2, HMG1 B Box peptide amino acids 150-183.
T2 peptide: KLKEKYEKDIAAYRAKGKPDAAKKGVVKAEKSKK
In words: ELISA, HMG1 B Box peptide 150-183 coated at 10 ug/ml, antibody titrated, OD 450. In short, it runs like this: (§1)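 Plates blocked with 4% milk/PBS, or biotinylated peptides captured on avidin wells after 1% BSA blocking (30 min RT). Human anti-HMG1 antibodies titrated or serially diluted from 10 μg/ml, detected with anti-human IgG-HRP and TMB substrate, absorbance at 450 nm.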

In test [3] the target is T3, HMG1 purified from calf (bovine) thymus (bovine, UniProt P10103 2-215).
T3 construct: also called Calf thymus HMGB1; thymus HMG1
T3 sequence (looked up): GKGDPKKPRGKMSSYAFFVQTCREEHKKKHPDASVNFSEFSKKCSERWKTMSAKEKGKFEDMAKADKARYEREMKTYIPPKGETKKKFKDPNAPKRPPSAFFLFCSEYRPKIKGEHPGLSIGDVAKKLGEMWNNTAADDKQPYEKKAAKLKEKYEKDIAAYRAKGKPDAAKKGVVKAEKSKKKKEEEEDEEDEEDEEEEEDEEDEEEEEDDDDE
The test can be described thus: direct ELISA, calf thymus HMGB1 coated at 5 ug/mL, antibody at 10 ug/mL, anti-human kappa/lambda-HRP, OD 490. In short, it runs like this:
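Calf thymus HMGB1 or HMGB2 coated at 5 ug/mL in 10 mM PBS pH 7.2 overnight at 4 °C; anti-HMGB1 antibody added at 10 ug/mL final in PBS + 1% BSA, 1 h at room temperature. Detection with HRP anti-human kappa plus lambda (1:1000, 1 h), OPD substrate 20-30 min in the dark, H₂SO₄ stop, absorbance 490 nm.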
(In general: In an ELISA, binding on a coated surface is turned into a signal by an enzyme label.)

The target of test [4] is T1, recombinant HMG1 produced in E. coli as …. In words: BIAcore 3000, mAb amine-coupled to CM5, HMG1 injected, steady-state model. In short, it runs like this:
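Each mAb amine-coupled to a CM5 chip alongside a reference flow cell; two-fold serial dilutions of E. coli-expressed CBP-fusion HMG1 injected at slow flow. Surfaces regenerated with 1M NaCl-50 mM NaOH. Affinity derived from binding curves by a steady-state model.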

In test [5] the target is T4, activated HMG1 from LPS stimulated THP-1 cells (human, UniProt P09429 1-215).
T4 sequence (looked up): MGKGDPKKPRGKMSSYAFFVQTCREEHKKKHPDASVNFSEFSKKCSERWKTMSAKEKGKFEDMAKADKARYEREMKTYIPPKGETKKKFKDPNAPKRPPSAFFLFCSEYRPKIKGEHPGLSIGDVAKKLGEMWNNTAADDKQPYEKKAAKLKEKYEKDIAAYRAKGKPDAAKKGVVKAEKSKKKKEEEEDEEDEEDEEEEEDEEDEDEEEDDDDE
The test can be described thus: cell-based or functional assay.

Test [6] concerns the target T5, HMG1 B Box peptide amino acids 91-169.
T5 construct: also called HMG1 peptide 91-169
T5 peptide: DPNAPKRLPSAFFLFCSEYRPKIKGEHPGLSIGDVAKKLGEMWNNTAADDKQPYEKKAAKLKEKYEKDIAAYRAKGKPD
In words: ELISA, HMG1 B Box peptide 91-169 coated at 10 ug/ml, antibody titrated, OD 450. In a few lines:
as §1

Test [7] deals with T1, recombinant HMG1 produced in E. coli as …. The test can be described thus: ELISA, coated RAGE-Fc, rHMG1 preincubated with antibody. The method, then:
HMG1 binding to RAGE-Ig by ELISA: 50 μl/well of RAGE-Fc fusion protein at 5 μg/ml in PBS was added to each well of an ELISA plate and incubated overnight at 4° C. The plate was then blocked with 200 μl of 5% milk at 37° C. for 1 hr and washed 3× with PBS/Tween. 50 μl/well of diluted HMGB1 solution. For dose curves, HMGB1 concentrations started at 4 ug/ml in PBS. For antibody blocking the HMGB1 was preincubated in another plate with human anti-HMG1 antibodies or buffer, then transferred to the RAGE-coated plate. The plates were then incubated at room temperature for 2 hours and washed 3×. To detect any HMG1 bound to the immobilized RAGE-Fc a mixture of biotinylated mouse anti-HMG1 mAbs (10D4, 4H11, 3E10 and 5C12) each at 1 ug/ml, total Ab: 4 ug/ml, were added to each well and the plate was incubated for 1 hour at room temperature. The plate was then washed and Strepavidin-HPR was added to each well and incubated 15 min. The plate was then washed 3× and blotted dry. 100 μl of TMB developing agent was added and the plate read at 650 nm. Values were calculated as percent of inhibition with HMG1 alone equal to 0% inhibition. The data in FIG. 9 and summarized in Table 1 represent the average of two separate experiments.

From patent US20110287023A1 (AstraZeneca / MedImmune, published 2011) come the findings set out here.

B1: human anti-HMG1 antibody G4 (antibody, IgG1, V domains shown)
VH: EVQLLESGGGLVQPGGSLRLSCAASGFTFSWYDMTWVRQAPGKGLEWVSSISPSGGYTKYADSVKGRFTISRDNSKNTLYLQMNSLRAEDTAVYYCTTEFYDYLDVWGKGTTVTVSS
VL: DIQMTQSPGTLSLSPGEGATLSCRASQSVSSTYLAWYQQKPGQAPRLLIYEASKRATGTPARFSGSGSGTDFTLSISSLEPEDFAVYYCQHRHNWPPQWTFGQGTKVEVK
notes: full length IgG1 made from a human Fab phage clone; also called ATCC PTA-6258
In general, Kd refers to the free concentration of one partner at which half of the binding sites on the other are occupied at equilibrium, for simple one-to-one binding. Consider B1, for which, in test [1], the “IC50 IL-1β” value is 5.01 mg/L, the “IC50 IL-6” value amounted to 0.9 nM, the “IC50 IL-12” value stood at 0.715 mg/L and the “IC50 TNF-α” value amounted to 5.51 mg/L. In test [2], the binding result is recorded as “no binding (tested: 10 ug/ml (log 1.0))”. In test [3], the binding result is “binds”. For the same molecule, the Kd in test [4] turned out to be 30 nM.

B2: human anti-HMG1 antibody E11 (antibody, IgG1, V domains shown)
VH: EVQLLESGGGLVQPGGSLRLSCAASGFTFSRYQMNWVRQAPGKGLEWVSSISPSGGHTHYADSVKGRFTISRDNSKNTLYLQMNSLRAEDTAVYYCAKDGRQGKISTVDHWGQGTLVTVSS
VL: DIQMTQSPGTLSLSPGERATLSCRASQSVRSNFLAWYQQKPGQAPRLLIYGASRRASGIPDRFSGSGFGADFTLSISRLEPEDFAVYYCQQYGSSPNTFGQGSRVEIK
notes: full length IgG1 made from a human Fab phage clone
B2: the “IC50 nm IL-6 Native HMGB” value in test [5] was found to be 1.73 nM. In test [1], the “IC50 IL-6” value came to 1.22 nM and the “IC50 NO” value amounted to 101 mg/L. Besides, the binding result in test [6] is given as “no binding (tested: 10 ug/ml (log 1.0))”. For the same molecule, the binding result in test [2] was “no binding (tested: 10 ug/ml (log 1.0))”.

B3: human anti-HMG1 antibody S6 (antibody, V domains shown)
VH: EVQLLESGGGLVQPGGSLRLSCAASGFTFSWYDMSWVRQAPGKGLEWVSRISPSGGYTMYADSVKGRFTISRDNSKNTLYLQMNSLRAEDTAVYYCARLEVGATSGGTAFDIWGQGTMVTVSS
VL: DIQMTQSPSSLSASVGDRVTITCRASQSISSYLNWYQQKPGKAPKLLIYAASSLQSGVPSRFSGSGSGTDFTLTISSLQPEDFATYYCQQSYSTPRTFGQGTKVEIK
notes: full length IgG1 made from a human Fab phage clone; two paragraphs print 'S4' for the PTA-6143 deposit; also called ATCC PTA-6143
As for B3, in test [1], the “IC50 IL-1β” value is 0.0232 mg/L, the “IC50 IL-6” value was 0.174 nM, the “IC50 NO” value came to 4.15 mg/L and the “IC50 TNF-α” value was 0.0182 mg/L. For the same molecule, the binding result in test [6] is “no binding (tested: 10 ug/ml (log 1.0))”. For the same molecule, in test [2], the binding result is “no binding (tested: 10 ug/ml (log 1.0))”. Besides, the “percent inhibition of HMG1 binding to RAGE” value in test [7] was at least 35%. Further, the binding result in test [3] is recorded as “binds”. Besides, in test [4], the dissociation constant (Kd) was 39 nM.

B4: human anti-HMG1 antibody S16 (antibody, IgG1, V domains shown)
VH: EVQLLESGGGLVQPGGSLRLSCAASGFTFSWYSMLWVRQAPGKGLEWVSYISPSGGFTNYADSVKGRFTISRDNSKNTLYLQMNSLRAEDTAVYYCARWDYNSGWYYDHWGQGTLVTVSS
VL: DIQMTQSPDTLSLSPGERATLSCRASQSVNSRNLAWYQQKPGQAPRLLIYGASTRATGIPDRFSGSVSGTEFTLTISSLQPDDFATYYCQQYNSYFTFGQGTKLEIK
notes: full length IgG1 made from a human Fab phage clone; also called ATCC PTA-6259
For the molecule B4, in test [5], the “IC50 nm IL-6 Native HMGB” value was determined as 38.9 nM. In addition, in test [1], the “IC50 IL-1β” value was determined as 6.05 mg/L, the “IC50 IL-6” value worked out at 0.56 nM, the “IC50 IL-12” value was 1.24 mg/L and the “IC50 TNF-α” value was 1.44 mg/L. Besides, the “percent inhibition of HMG1 binding to RAGE” value in test [7] is at least 35%. For the same molecule, the binding result in test [3] is “binds”. Moreover, in test [4], the Kd is 23 nM.
